The source of these data is paper PMC5952157.

For the assay, the target named is V5-HAX-1 (HCLS1-associated protein X-1) (human) (UniProt O00165). Kind of assay: co-IP.
Sequence of UniProt O00165 (O00165 whole entry): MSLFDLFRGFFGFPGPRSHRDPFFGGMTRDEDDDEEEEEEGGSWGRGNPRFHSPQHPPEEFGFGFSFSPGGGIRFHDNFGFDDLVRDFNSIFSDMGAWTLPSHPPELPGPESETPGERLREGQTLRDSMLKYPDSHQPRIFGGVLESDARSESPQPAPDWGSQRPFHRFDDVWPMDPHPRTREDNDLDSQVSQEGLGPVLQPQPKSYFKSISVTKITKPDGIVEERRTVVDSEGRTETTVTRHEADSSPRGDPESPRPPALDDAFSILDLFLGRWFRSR

Regarding “VN/1203 PB1-F2 coexpressed as competitor (Figure 8c) (natural protein)”, the percent decrease of HAX-1 bound to PA in the presence of PB1-F2 is 80%.
